Data taken from article PMC3017110.

What was measured:
[1] = target: T1, QK RNA-binding domain (recombinant, purified) (UniProt Q9QYS9 1-213); assay: competition; competes with Mbp QSBE; Kc,app value only in figure; EMSA on non-denaturing 5% polyacrylamide slab gel in 1x TBE; binding buffer, salt, pH and temperature not printed (per ref 64)
T1 sequence: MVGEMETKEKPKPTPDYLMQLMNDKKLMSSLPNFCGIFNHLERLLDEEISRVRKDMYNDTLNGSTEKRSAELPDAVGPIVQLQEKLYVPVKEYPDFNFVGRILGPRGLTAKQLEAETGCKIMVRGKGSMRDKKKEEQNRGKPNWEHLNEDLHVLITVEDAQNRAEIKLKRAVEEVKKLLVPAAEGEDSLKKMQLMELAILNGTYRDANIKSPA

[2] = target: T1, QK RNA-binding domain (recombinant, …); assay: EMSA and fluorescence polarization; apparent Kd; EMSA on non-denaturing 5% polyacrylamide slab gel in 1x TBE; binding buffer, salt, pH and temperature not printed (per ref 64)
[3] = target: T1, QK RNA-binding domain (recombinant, …); assay: EMSA; three fragments; does not bind with high affinity; EMSA on non-denaturing 5% polyacrylamide slab gel in 1x TBE; binding buffer, salt, pH and temperature not printed (per ref 64)

Binder	Kd [2]	other results
UGUGACUAAUUG (ssRNA) [Hnrnpa1 12-nt RNA competitor]		binding result [1]: binds
AACUCCAGGACUGUAUUUGUGACUAAUUGU (ssRNA) [Hnrnpa1 3' UTR QSBE WT, 30 nt]	36 ± 2 nM	
GCUCAUUCUUUGGAGCGGGUGUGUCAUU (ssRNA) [Plp1 ESE fragments (three overlapping)]		binding result [3]: no binding
CAGUGCCCAUUGGUACACACUAACCUCG (ssRNA) [Mbp QSBE]	44 ± 2 nM	
